From paper PMC6468313, “Role of Cdc23/Mcm10 in generating the ribonucleotide imprint at the mat1 locus in fission yeast” (Nucleic Acids Research, 2019)

Molecular target: T1, GST-Cdc23 (S. pombe, UniProt O42709 1-593)
T1 construct: Cdc23/Mcm10 of S. pombe; also called GST-tagged Cdc23; source: E. coli Codon Plus, from pGEX2T, induced with 1 mM IPTG for 16 h at 18°C; ultrafilter-concentrated extract (pull-down); partially purified (far-western)
T1 sequence (looked up): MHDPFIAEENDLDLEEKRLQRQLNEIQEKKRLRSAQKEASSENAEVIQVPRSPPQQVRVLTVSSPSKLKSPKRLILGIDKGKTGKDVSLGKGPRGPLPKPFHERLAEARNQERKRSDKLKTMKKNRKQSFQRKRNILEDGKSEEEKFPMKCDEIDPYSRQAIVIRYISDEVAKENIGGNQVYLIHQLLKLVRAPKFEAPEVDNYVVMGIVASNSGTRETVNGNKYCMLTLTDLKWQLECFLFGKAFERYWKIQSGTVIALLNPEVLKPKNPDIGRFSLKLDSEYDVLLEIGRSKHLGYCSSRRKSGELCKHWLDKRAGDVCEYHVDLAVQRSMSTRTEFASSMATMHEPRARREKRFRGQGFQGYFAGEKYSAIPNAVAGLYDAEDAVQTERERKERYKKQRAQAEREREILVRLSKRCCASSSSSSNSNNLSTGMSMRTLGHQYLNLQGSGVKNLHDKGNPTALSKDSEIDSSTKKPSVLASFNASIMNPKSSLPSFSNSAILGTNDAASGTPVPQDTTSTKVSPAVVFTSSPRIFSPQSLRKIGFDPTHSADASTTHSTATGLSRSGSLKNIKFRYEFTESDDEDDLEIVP
Experiment: far-Western, overlay or dot blot; partially purified GST and GST-Cdc23 resolved by SDS-PAGE, blotted and progressively renatured; incubated with purified extracts from E. coli expressing MBP, MBP-Polα^+ or MBP-Polα^Swi7-1; probed with anti-Polα
Conditions: both partners purified

- fold weaker interaction than with Polα^+: ~3 fold
B1: MBP-Polα^Swi7-1 (natural protein, S. pombe, UniProt P28040 1-1405, looked up)
chain: MRKRNAGIKPSQRFAELRALRQAGKTRASTYESKENEELYDNVSEEEYRKIVRQRLDEDDFVVDDNGAGYVDNGYDEWDQSHYSDEDDENEKGSSGRKRKKSKNVLAEPNQQIGAFFKANAIQPASRIANRKNNEKEDEFMAEILGSIDQDIPERLSTKKGNRSHTTSNAKRRSQKAASSISTTNVVSSDPKKYIPETVPSTPQPASSLPIPSSPPAALETEENVDSQPMELDEPELPVGSDAPIIDVEESIAMKPLMSHDQVDDTASLSKATISQQPLSPMTPLSSELDVSAFSEINSKIKNVDVPASSYSSPISKVSPSDVTEEDGSLFFFWMDYTEMYGSLCLFGKVYDKATKQYVSCFLKVDGIMRSLYFLPRPSSSSVSEDSIAAQTKDVYDEVANLLSKRGVKEWKSRVSKYKYAFELEDVPRTADYLEVIYSYSYPALPTDLTGSSFSHVFGTNTALFEQFVLSRRVMGPCWLKIQQPNFDAVKNASWCRVEIGCSSPQNISVSFEKNEITSKTPPMTVMSLAFRTLINKEQNKQEVVMISARIFENVDIEKGLPANDMPSYSFSLIRPLKQIFPNGFEKLARQHKSSIFCERSEVSLLNNFLNKVRTYDPDVYFGHDFEMCYSVLLSRLKERKIHNWSSIGRLRRSEWPRSFNRSSQQFVEKQIIAGRLMCDLSNDFGRSMIKAQSWSLSEIVLKELDIKRQDINQEKALQSWTDTAHGLLDYLVHCEIDTFFIAAVAFKIQMLQLSKNLTNIAGNSWARTLTGTRAERNEYILLHEFKKNGYIVPDKQQSIRRHAEAFGAEDGLQEESLGKKKDKYKGGLVFEPQKGLYETCILVMDFNSLYPSIIQEYNICFTTVDRSPSNSDSDDQIPDTPSASANQGIFPRLIANLVERRRQIKGLLKDNSATPTQRLQWDIQQQALKLTANSMYGCLGYTKSRFYARPLAVLITYKGREALMNTKELADQMGLQVIYGDTDSVMLNTNVTDKNHALRIGNEFKEKVNERYSKLEIDIDNVYQRMLLHAKKKYAALQLDSQGKPNLDVKGLDMKRREFCTLAKEASKFCLDQILSGELTETVIENIHSYLMDFSEKMRNGKFPANKFIIFNRLEKNPEDYPNGKTMPFVQVALKKKARGENVRVGDVIPFIIAGSDADGHPADRAYSPQEIMNTNSTLVIDYNYYLSHQILPPIERVIAPIEGTNRARLAECLGLDARKYYSHETSESSAFQRYESTLTDDQCFINVSPLLLKCPSCNATSFSLRSVKSLKETLYANTVECDCGYEYSDFTIILQFSSQLRDFINLYYEGILVCDDSSCGNRTRQMSVYGKRCCNKSCRGSVHFEYNDEQLYNQIKFLLKAVQTTTGATRNGIIRCNAINKNISRIMNKNAREFVDMGLIFSS
notes: catalytic subunit of DNA polymerase α (Swi7) of S. pombe with the swi7-1 mutation G1116E; also called MBP-tagged swi7-1/polα; Polα^7-1; source: E. coli, from pMALp2, induced with 1 mM IPTG for 8 h at 25°C; purified on amylose resin (far-western)
